Experimental data taken from patent EP4755920A1.

Biological target: hIL4Rα-ECD(26-232)-mFc (human)
Assay: competition ELISA, hIL4R-ECD-mFc captured by anti-mFc, biotinylated human IL4 as competitor

IC50: 9.95 nM
Substance: Isotype (antibody)
